According to article PMC9747964 (Nature Communications, 2022):
Where “and” joins values, the source holds several entries; their conditions need not be identical. Equal values may be shown once.

Assays:
[1] = target: ComEAGs (ComEA from Geobacillus stearothermophilus, codons 60-207) (Geobacillus stearothermophilus (ATCC 7953)); test: AUC; sedimentation velocity, ComEAGs at 31.3 μM (280 nm), fitted to a discrete monomer-dimer equilibrium model (genetic algorithm Monte Carlo); dimer to monomers; apparent; 20 °C, 10 mM Tris pH 8, 100 mM KCl
[2] = target: ComEAGs (ComEA from Geobacillus stearothermophilus, codons 60-207) (Geobacillus stearothermophilus (ATCC 7953)); test: AUC; sedimentation velocity, ComEAGs at 157 μM, 20 °C, 10 mM Tris pH 8, 100 mM KCl, 60 krpm
[3] = target: ComEAGs-OD (oligomerization domain of ComEAGs alone, codons 60-122) (Geobacillus stearothermophilus (ATCC 7953)); test: AUC; sedimentation velocity, ComEAGs-OD at 12.7 μM, 37 krpm, 20 °C, 10 mM Tris pH 8, 100 mM KCl
ComEAGs wild-type [4] = target: T1, ComEAGs wild-type (Geobacillus stearothermophilus (ATCC …, UniProt A0A0K9HI54 60-207)); test: MW-AUC; 1.5 uM DNA, 10:1 protein:DNA; >90% DNA bound; ~7:1 complex, 8.1 S; MW-AUC: 10 mM Tris pH 8, 100 mM KCl, 20 C; EMSA: 10 mM Tris pH 8, 100 mM KCl, 2.5% glycerol, 0.5 mM EDTA, 1 mM MgCl2, room temperature 15 min, 8% native gel in; details: protein: recombinant; blunt
T1 sequence: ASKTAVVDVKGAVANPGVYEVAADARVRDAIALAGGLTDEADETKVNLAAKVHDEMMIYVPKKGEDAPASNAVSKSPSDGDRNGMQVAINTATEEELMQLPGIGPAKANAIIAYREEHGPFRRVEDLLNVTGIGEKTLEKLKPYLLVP

[5] = target: the molecule itself; test: crystal structure; ComEABs crystals, 22% PEG 500, 0.1 M succinate pH 5.5, 20 °C; 3.20 Å
ComEAGs wild-type [6] = target: T1, ComEAGs wild-type; test: MW-AUC; 1.5 uM DNA, 5:1 and 10:1 protein:DNA; >90% DNA bound; ~3:1 complex, 3.9-4.0 S; MW-AUC: 10 mM Tris pH 8, 100 mM KCl, 20 C; EMSA: 10 mM Tris pH 8, 100 mM KCl, 2.5% glycerol, 0.5 mM EDTA, 1 mM MgCl2, room temperature 15 min, 8% native gel in; details: protein: recombinant; blunt
[7] = target: the molecule itself; test: AUC; sedimentation velocity of ComEAGs-OD at 196 uM, 37 krpm, 20 °C, 10 mM Tris pH 8, 100 mM KCl; molar mass distribution
ComEAGs wild-type [8] = target: T1, ComEAGs wild-type; test: EMSA; 0.5 uM DNA, 1 mM MgCl2; cooperative; MW-AUC: 10 mM Tris pH 8, 100 mM KCl, 20 C; EMSA: 10 mM Tris pH 8, 100 mM KCl, 2.5% glycerol, 0.5 mM EDTA, 1 mM MgCl2, room temperature 15 min, 8% native gel in; details: protein: recombinant; blunt
[9] = target: the molecule itself; test: AUC; sedimentation velocity of 31.3 uM ComEAGs, measured at 280 nm, 60 krpm, 20 °C, 10 mM Tris pH 8, 100 mM KCl; fitted to a discrete monomer-dimer reversibly self-associating model by genetic algorithm Monte Carlo analysis (96 iterations); dimer to monomers

## ComEAGs (ComEA from Geobacillus stearothermophilus, codons 60-207) (domain or fragment)
[1]
  Kd: 33.8 µM
[2]
  Kd: 10 to 160 µM
  stoichiometry N: 2

## ComEAGs-OD (oligomerization domain of ComEAGs alone, codons 60-122) (domain or fragment)
[3]
  stoichiometry N: 2

B1: EAGs40bp (dsDNA)
DNA 1: CGTTAGCACTGTGAATATCACTACAGCAACCTTAGAATCG
DNA 2: CGATTCTAAGGTTGCTGTAGTGATATTCACAGTGCTAACG
ComEAGs wild-type [4]
  binding result: binds

B2: ComEABs (ComEA from Bacillus subtilis, codons 58-205) (domain or fragment, B. subtilis strain 168, UniProt P39694 58-205, looked up)
chain: SNETIVIDIKGAVQHPGVYEMRTGDRVSQAIEKAGGTSEQADEAQVNLAEILQDGTVVYIPKKGEETAVQQGGGGSVQSDGGKGALVNINTATLEELQGISGVGPSKAEAIIAYREENGRFQTIEDITKVSGIGEKSFEKIKSSITVK
notes: ComEA, Bacillus subtilis strain 168, codons 58-205 (lacks the N-terminal transmembrane region); source: E. coli BL21, purified (His-60 resin, Source 15Q, Superdex200); not shown: His6, C-terminal, kept
[5]
  binding result: binds

B3: EAGs14bp (dsDNA)
DNA 1: GTAGGACCATCTGC
DNA 2: GCAGATGGTCCTAC
ComEAGs wild-type [6]
  binding result: binds

B4: ComEAGs oligomerization domain alone, residues 60-122 (domain or fragment, Geobacillus stearothermophilus)
chain: ASKTAVVDVKGAVANPGVYEVAADARVRDAIALAGGLTDEADETKVNLAAKVHDEMMIYVPKK
notes: ComEA, Geobacillus stearothermophilus (ATCC 7953), codons 60-122 (oligomerization domain); also called ComEAGs-OD; ComEA-OD; source: E. coli BL21(DE3), purified by the same protocol as wild-type ComEAGs; not shown: His-Sumo, N-terminal, cleaved
[7]
  stoichiometry N: 4 and > 4

B5: EAGs30bp (dsDNA)
DNA 1: GCACTGTGAATATCACTACAGCAACCTTAG
DNA 2: CTAAGGTTGCTGTAGTGATATTCACAGTGC
ComEAGs wild-type [8]
  binding result: binds

B6: ComEA from Geobacillus stearothermophilus, residues 60-207 (domain or fragment)
chain: T1 sequence
notes: ComEA, Geobacillus stearothermophilus (ATCC 7953), codons 60-207 (without the N-terminal transmembrane region); also called ComEAGs; wild-type ComEAGs; source: E. coli BL21(DE3), purified (His-60 Ni resin, Source 15Q, Hitrap Heparin, Superdex200); not shown: His-Sumo, N-terminal, cleaved
[9]
  koff: 5.27e-05 s⁻¹
